Numbering of substitutions follows the chain as printed.
B1: anti-MCP-1 mAb 3.5.1 (antibody, V domains shown)
VH: QVQLVQSGAEVKKPGASVKVSCKVSGYTLSELSMHWVRQAPGKGLEWMGGFDPEDDETIYAQKFQGRVTMTEDTSTDTAFMELSSLRSEDTAVYYCATHDFWSGYFHYWGQGTLVTVSS
VL: DIVMTQSPDSLAVSLGERATINCKSSQSVLYSSDNKSYLVWYQQKPGQPPKVLIYWASIRESGVPDRFSGSGSGTDFTLTISSLQAEDVAVYYCQQYYTSPWTFGQGTKVEIKR
B2: anti-MCP-1 mAb 3.6.1 (antibody, V domains shown)
VH: B1 VH with S30T, D56G, F80Y, T98I, D100E, H107D
VL: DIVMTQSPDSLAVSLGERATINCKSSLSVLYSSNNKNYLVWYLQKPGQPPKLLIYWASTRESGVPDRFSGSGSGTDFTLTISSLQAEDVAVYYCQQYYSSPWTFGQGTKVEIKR
B3: anti-MCP-1 mAb 5.3.1 (antibody, V domains shown)
VH: B1 VH with D56G, F80Y, Y94F, H99K, D100R, F101E, W102Y, H107D
VL: DIVMTQSPDSLAVSLGERATINCKSSQSVLYSSNSKNYLAWFQQKPGQPPKLLIYWASTRESGVPDRFSGSGSGTDFTLTISRLQAEDVAVYSCQQYFITPWTFGQGTKVELKR
B4: anti-MCP-1 mAb 3.8 (antibody, V domains shown)
VH: QVQLVQSGAEVKKPGASVKVSCKVSGYTLTELSMHWVRQAPGKGLEWMGGFDPENGETIHAQKFQGRVIMTEDTSTDTAYMELSSLRSEDTAVYYCATDQGGYSGYFDCWGQGTLVTVSS
VL: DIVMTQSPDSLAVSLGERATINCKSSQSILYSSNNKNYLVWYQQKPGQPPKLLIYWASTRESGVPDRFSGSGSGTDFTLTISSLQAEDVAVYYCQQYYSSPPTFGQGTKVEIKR
notes: also called 3.8.1
B5: anti-MCP-1 mAb 2.4.1 (antibody, V domains shown)
VH: QVQLVQSGAEVKKPGASVKVSCKASGYTFTGYYLHWVRQAPGQGLEWMGWINPYNDGTNYAQKFQGRVTMTRDTSISTAYMELSRLRSDDTAVYYCARDIAAAGAVYFDYWGQGTLVTVSS
VL: DIQMTQSPSSLSASVGDRVTITCQASQDITTYLNWYQQKPGKAPKLLIYDASNLETGVPSRFSGSGSGTDFTFTISSLQPEDIATYYCQQYDNLPITFGQGTRLEIKR

Each binder was assayed against T1, human monocyte chemo-attractant protein-1 (MCP-1) (human, UniProt P13500 24-99) (assay: cell-based or functional assay).
T1 sequence (P13500 24-99): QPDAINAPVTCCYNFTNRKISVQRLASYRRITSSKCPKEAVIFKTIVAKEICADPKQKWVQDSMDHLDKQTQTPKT

Row | Binder | IC50 Ca++ Flux | IC50 Chemotaxis
1 | B1 | 0.58 µg/mL | 3.1 µg/mL
2 | B2 | 0.17 µg/mL | 0.52 µg/mL
3 | B3 | 1.8 µg/mL | 2.6 µg/mL
4 | B4 | 0.27 µg/mL | 0.7 µg/mL
5 | B5 | 0.26 µg/mL | > 5 µg/mL

These binders were tested against T2, recombinant human MCP-3 (human, UniProt P80098 24-99) (assay: ELISA, coated antigen).
T2 construct: also called rhMCP-3
T2 sequence (P80098 24-99 limits assumed): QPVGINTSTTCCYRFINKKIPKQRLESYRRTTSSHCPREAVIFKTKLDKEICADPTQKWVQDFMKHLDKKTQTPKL
How it was run: (§1)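 Plates coated overnight at 4° C with MCP-1, MCP-2, MCP-3, MCP-4, RANTES, GRO-alpha, MIP-1 alpha, eotaxin, rat MCP-1 or mouse JE (2 μg/ml, carbonate buffer pH 9.6), blocked with BSA. Hybridoma supernatants bound 2 hours at room temperature; TMB colour developed about 10 minutes.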

Row | Binder | ELISA OD
6 | B1 | 0.045 OD450
7 | B2 | 0.045 OD450
8 | B3 | 0.045 OD450
9 | B4 | 0.046 OD450
10 | B5 | 0.066 OD450

Each binder was assayed against T3, human eotaxin (human, UniProt P51671 24-97) (assay: ELISA, coated antigen).
T3 construct: also called hEotaxin
T3 sequence (P51671 24-97 limits assumed): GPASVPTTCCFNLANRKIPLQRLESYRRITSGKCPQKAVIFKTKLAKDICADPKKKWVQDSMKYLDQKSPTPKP
How it was run: as §1

Row | Binder | ELISA OD
11 | B1 | 0.043 OD450
12 | B2 | 0.043 OD450
13 | B3 | 0.042 OD450
14 | B4 | 0.042 OD450
15 | B5 | 0.084 OD450

What follows are binders tested against T4, recombinant human MCP-4 (human, UniProt Q99616 24-98, limits assumed) (assay: ELISA, coated antigen).
T4 construct: also called rhMCP-4
T4 sequence (Q99616 24-98 limits assumed): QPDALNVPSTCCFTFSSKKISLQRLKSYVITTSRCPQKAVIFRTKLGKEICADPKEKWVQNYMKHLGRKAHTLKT
How it was run: as §1

Row | Binder | ELISA OD
16 | B1 | 0.044 OD450
17 | B2 | 0.048 OD450
18 | B3 | 0.043 OD450
19 | B4 | 0.044 OD450
20 | B5 | 0.06 OD450

The binders below were run against T5, human MIP-1-alpha (human, UniProt P10147 24-92, limits assumed) (assay: ELISA, coated antigen).
T5 construct: also called hMIP-1-alpha
T5 sequence (looked up): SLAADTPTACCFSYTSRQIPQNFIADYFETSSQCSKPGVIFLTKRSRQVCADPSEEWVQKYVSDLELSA
How it was run: as §1

Row | Binder | ELISA OD
21 | B1 | 0.047 OD450
22 | B2 | 0.047 OD450
23 | B3 | 0.042 OD450
24 | B4 | 0.046 OD450
25 | B5 | 0.061 OD450

Each binder was assayed against T6, human GRO/MGSA (human, UniProt P09341 35-107) (assay: ELISA, coated antigen).
T6 construct: also called hGRO/MGSA; GRO-alpha
T6 sequence (looked up): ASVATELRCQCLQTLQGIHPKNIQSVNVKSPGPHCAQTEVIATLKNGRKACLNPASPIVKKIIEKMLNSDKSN
How it was run: as §1

Row | Binder | ELISA OD
26 | B1 | 0.048 OD450
27 | B2 | 0.047 OD450
28 | B3 | 0.045 OD450
29 | B4 | 0.046 OD450
30 | B5 | 0.048 OD450

What follows are binders tested against T7, recombinant mouse JE/MCP-1 (mouse, UniProt P10148 24-148) (assay: ELISA, coated antigen).
T7 construct: also called rmJE/MCP-1
T7 sequence (P10148 24-148 limits assumed): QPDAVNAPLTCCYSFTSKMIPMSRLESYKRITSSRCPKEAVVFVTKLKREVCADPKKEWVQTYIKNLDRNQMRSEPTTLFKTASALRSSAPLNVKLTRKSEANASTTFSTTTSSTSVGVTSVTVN
How it was run: as §1

Row | Binder | ELISA OD
31 | B1 | 0.042 OD450
32 | B2 | 0.047 OD450
33 | B3 | 0.05 OD450
34 | B4 | 0.042 OD450
35 | B5 | 0.129 OD450

Each binder was assayed against T8, recombinant human MCP-2 (human, UniProt P80075 24-99) (assay: ELISA, coated antigen).
T8 construct: also called rhMCP-2
T8 sequence (looked up): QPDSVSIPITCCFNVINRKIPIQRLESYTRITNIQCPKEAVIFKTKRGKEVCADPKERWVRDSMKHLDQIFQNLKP
How it was run: as §1

Row | Binder | ELISA OD
36 | B1 | 0.042 OD450
37 | B2 | 0.052 OD450
38 | B3 | 0.043 OD450
39 | B4 | 0.042 OD450
40 | B5 | 0.045 OD450

Each binder was assayed against rat MCP-1 (rat, UniProt P14844 24-148) (assay: ELISA, coated antigen).
rat MCP-1, sequence (P14844 24-148 limits assumed): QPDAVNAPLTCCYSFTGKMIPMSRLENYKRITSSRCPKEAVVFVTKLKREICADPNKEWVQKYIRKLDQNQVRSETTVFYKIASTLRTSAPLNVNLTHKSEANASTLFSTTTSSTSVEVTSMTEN
How it was run: as §1

Row | Binder | ELISA OD
41 | B1 | 0.053 OD450
42 | B2 | 0.046 OD450
43 | B3 | 0.047 OD450
44 | B4 | 0.062 OD450
45 | B5 | 0.077 OD450

These binders were tested against T9, human RANTES (human, UniProt P13501 24-91) (assay: ELISA, coated antigen).
T9 construct: also called hRANTES
T9 sequence (looked up): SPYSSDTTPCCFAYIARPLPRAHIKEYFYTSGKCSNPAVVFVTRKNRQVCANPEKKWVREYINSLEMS
How it was run: as §1

Row | Binder | ELISA OD
46 | B1 | 0.044 OD450
47 | B2 | 0.043 OD450
48 | B3 | 0.045 OD450
49 | B4 | 0.046 OD450
50 | B5 | 0.046 OD450

These binders were tested against T1, human monocyte chemo-attractant … (assay: Biacore, mAb immobilized, MCP-1 injected; Biacore, 25 C, native MCP-1 injected over immobilized mAb).
Method: Determination of anti-MCP-1 antibody affinity using Biacore analysis. The antibody/MCP-1 interaction analysis was performed at 25° C. using two CM5 chips docked in Biacore 3000 optical biosensors. Individual flow cells on each chip were activated with a 7-minute injection of NHS/EDC, carbohydrazide was coupled through the NHS ester using a 7-minute injection, and the residual activated groups were blocked with a 7-minute injection of ethanolamine. The monosaccharide residues of each antibody were oxidized using 1 mM sodium metaperiodate in 100 mM sodium acetate, pH 5.5 at 4° C. for 30 minutes. The oxidized antibody was desalted into 100 mM sodium acetate, pH 5.0, to couple the antibody to the carbohydrazide-modified surface. The mAb surfaces were stabilized by reducing the hydrazone bond with 0.1 M sodium cyanoborohydride. The antigen/antibody interaction was tested by injecting 0, 0.049, 0.15, 0.4, 1.3, 4 and 12 nM of MCP-1 (Peprotech, N.J.) in running buffer (10 mM HEPES, 150 mM NaCl, 0.005% surfactant, 200 μg/ml BSA, pH 7.4). The surfaces were regenerated with a 12-second pulse of 15 mM H₃PO₄. The antigen/antibody interaction was tested by injecting duplicate antigen samples diluted in running buffer (10 mM HEPES, […], 0.005% surfactant, 200 μg/mL BSA, pH 7.4), in a 300-fold concentration range. The surfaces were regenerated with a 12-second pulse of 15 mM H₃PO₄. To determine the kinetics of each interaction, the data sets were fit globally to a 1:1 interaction model that included a parameter for mass transport.

Row | Binder | Kd
51 | B1 | 100 pM
52 | B2 | 15 pM
53 | B3 | 450 pM
54 | B4 | 3.4 pM
55 | B5 | 14 pM

Each binder was assayed against T1, human monocyte chemo-attractant … (assay: ELISA, hybridoma supernatant on coated MCP-1; ELISA, hybridoma supernatant on plate-coated non-reduced MCP-1 (2 ug/mL)).
Method: Selection of candidate antibodies for ELISA. After 14 days of culture, hybridoma supernatants were screened for MCP-1-specific monoclonal antibodies. The ELISA plates (Fisher, Cat. No. 12-565-136) were coated with 50 μl/well of MCP-1 (2 μg/mL) in Coating Buffer (0.1 M Carbonate Buffer, pH 9.6, NaHCO₃8.4 g/L), then incubated at 4° C. overnight. After incubation, the plates were washed with Washing Buffer (0.05% Tween 20 in PBS) three times. 200 μl/well Blocking Buffer (0.5% BSA, 0.1% Tween 20, 0.01% Thimerosal in 1× PBS) were added and the plates incubated at room temperature for 1 hour. After incubation, the plates were washed with Washing Buffer three times. 50 μL/well of hybridoma supernatants, and positive and negative controls were added and the plates incubated at room temperature for 2 hours.
The positive control used throughout was XMG2 MCP-1 Group 1, footpad N160-7 and the negative control was XMG2 KLH Group 1, footpad L627-6. After incubation, the plates were washed three times with Washing Buffer. […] In the secondary screen, three sets of samples (positives in first screening) were screened, one set for hIgG detection, one set for hKappa detection, and one set for hlambda detection. After incubation, the plates were washed three times with Washing Buffer. 100 μL/well of TMB (BioFX Lab. Cat. #TMSK-0100-01) were added and the plates allowed to develop for about 10 minutes (until negative control wells barely started to show color), then 50 μL/well stop solution (TMB Stop Solution (BioFX Lab. Cat. #STPR-0100-01) were added and the plates read on an ELISA plate reader at wavelength 450 nm. The OD readings from the positive wells are presented in Table 9.

Row | Binder | ELISA OD-MCP-1
56 | B1 | 3.77 OD450
57 | B2 | 3.59 OD450
58 | B3 | 4 OD450
59 | B4 | 3.6 OD450
60 | B5 | 3.89 OD450

These binders were tested against T1, human monocyte chemo-attractant … (assay: ELISA, coated antigen; ELISA, purified clone 1:50 on coated hMCP-1 (2 ug/mL), cross-reactivity panel).
Method: Determining cross-reactivity of anti-MCP-1 antibodies with other chemokines. ELISA plates (Fisher Cat. No. 12-565-136) were coated with 50 μl/well of MCP-1, MCP-2, MCP-3, MCP-4, RANTES, GRO-alpha, MIP-1 alpha, eotaxin, rat MCP-1 and mouse JE (2 μg/ml) in coating buffer (0.1 M carbonate buffer, pH 9.6, NaHCO₃ 8.4 g/L, then incubated at 4° C. overnight. After incubation, the plates were washed with washing buffer (0.05% Tween 20 in PBS) three times. 200 μL/well blocking buffer (0.5% BSA, 0.1% Tween 20, 0.01% Thimerosal in 1×PBS) were added and the plates incubated at room temperature for 1 hour. After incubation, the plates were washed with washing buffer three times. 50 μL/well of hybridoma supernatants, and positive and negative controls (positive control was anti-MCP-1 antibody purchased from R&D Sciences, and negative control was an antibody to Keyhole Limpet Hemocyanin produced at Abgenix) were added and the plates incubated at room temperature for 2 hours. After incubation, the plates were washed three times with washing buffer. […] After incubation, the plates were washed three times with washing buffer and 100 μL/well of TMB (BioFX Lab. Cat. #TMSK-0 100-01) was added and the plates allowed to develop for about 10 minutes.

Row | Binder | ELISA OD
61 | B1 | 0.194 OD450
62 | B2 | 0.342 OD450
63 | B3 | 0.272 OD450
64 | B4 | 0.275 OD450
65 | B5 | 0.462 OD450

Reference: patent publication US20050058639A1 (AstraZeneca / MedImmune, published 2005)
